Results on 3 substances are retold here after US20110269161.

In data set [1] the test system is peptide H5 (EYDRLYEEYTPFR), derived from Phosphatidylinositol 3-kinase regulatory subunit p85α(Tyr-467)/p55γ(Tyr-199).
Data set [2] deals with T1, peptide A6 (RPGPQSPGSPPFR), derived from neutrophil cytosol factor 1.
T1 sequence: RPGPQSPGSPPFR

The subject of data set [3] is T2, peptide B11 (LKLSPSPSSRPFR), derived from lamin-b1 (Ser392).
T2 sequence: LKLSPSPSSRPFR

The test system of data set [4] is T3, peptide C2 (IPTGTTPQRKPFR), derived from kinesin-like protein kif11 (Thr927).
T3 sequence: IPTGTTPQRKPFR

Data set [5] has as its system seven peptides sharing a common motif of [S/T]-Pro and clear upregulation by G2/M arrest.
Data set [6] has as its system T4, peptide C6 (TKRSGSVYEPPFR), derived from phosphorylase b kinase regulatory subunit beta (Ser26).
T4 sequence: TKRSGSVYEPPFR

In data set [7] the test system is T5, peptide F6 (RIRTQSFSLQPFR), derived from nitric-oxide synthase, endothelial (Ser1176).
T5 sequence: RIRTQSFSLQPFR

As to “Src (full length), purified human active kinase”, the “in vitro kinase reaction with purified kinase” value in data set [1] is “robust phosphorylation by Src but not EGFR”.

As to “Cdc2/cyclin B1 (full length), purified complex”, the “phosphorylation by purified kinase complex (KAYAK profiling of 90 peptides)” value in data set [2], in data set [3], in data set [4] and in data set [5] was “purified Cdc2/Cyclin B1 complex phosphorylated all 7 peptides along with 4 other up-regulated peptides” each time.

“Akt1 (full length), purified human active kinase”: the “in vitro peptide phosphorylation by purified kinase (KAYAK, LC-MS)” value in data set [6] is “this peptide was not significantly phosphorylated by Akt”. Also, the “peptide phosphorylation, 100 µM peptide reacted individually” value in data set [7] is “both RSK and Akt demonstrated strong phosphorylation”.
